Results taken from paper PMC6536115.

Substrate: C[C@H](O)C(=O)O
Assay: cells, lysate or membranes
Details: proton

B1: Monocarboxylate transporter 1 (MCT1) (Mus musculus) (protein)
chain: MPPAIGGPVGYTPPDGGWGWAVLVGAFISIGFSYAFPKSITVFFKEIEVIFSATTSEVSWISSIMLAVMYAGGPISSILVNKYGSRPVMIAGGCLSGCGLIAASFCNTVQELYLCIGVIGGLGLAFNLNPALTMIGKYFYKKRPLANGLAMAGSPVFLSTLAPLNQAFFDIFDWRGSFLILGGLLLNCCVAGSLMRPIGPEQVKLEKLKSKESLQEAGKSDANTDLIGGSPKGEKLSVFQTINKFLDLSLFTHRGFLLYLSGNVVMFFGLFTPLVFLSSYGKSKDFSSEKSAFLLSILAFVDMVARPSMGLAANTKWIRPRIQYFFAASVVANGVCHLLAPLSTTYVGFCVYAGVFGFAFGWLSSVLFETLMDLIGPQRFSSAVGLVTIVECCPVLLGPPLLGRLNDMYGDYKYTYWACGVILIIAGIYLFIGMGINYRLLAKEQKAEEKQKREGKEDEASTDVDEKPKETMKAAQSPQQHSSGDPTEEESPV
Km: 3.88 ± 0.86 mM
Vmax: 0.414 µmol/min/mg
